In the assay the target is SARS-CoV-2 S2 fragment (fusion fragment; postfusion S2 trimer, peak 2) (SARS-CoV-2). Briefly: cryo-EM structure.

These results are taken from publication PMC7464562.

A word on the stoichiometry N: it is a count of units in the complex or per binding partner.

For “SARS-CoV-2 S2 fragment (fusion fragment; postfusion S2 trimer, peak 2) (domain or fragment)”, the stoichiometry N worked out at 3.
